From US20240084011A1 come the findings set out here.

B1: 78-8D14 scFv (scFv, part only; not given: Linker, domain order, 3xFLAG tag, V domains shown, not shown: another chain or arm of the molecule; small tags and cut ends)
VH: EVQLVESGGGLVQPGGSLRLSCAASGFTFSSYVMHWVRQAPGKGLEWVSAISWSGRGTYYADSVKGRFTISRDNSKNTLYLQMNSLRAEDTAVYYCARGRLFGLARYGEAFDVWGQGTLVTVSS
VL: DIQMTQSPSSLSASVGDRVTITCQASRDISNYLNWYQQKPGKAPKLLIYDASNLETGVPSRFSGSGSGTDFTFTISSLQPEDIATYYCQQFNSFPLTFGQGTKVEIK
B2: 78-8 scFv (scFv, part only; not given: Linker, domain order, 3xFLAG tag, V domains shown, not shown: another chain or arm of the molecule; small tags and cut ends)
VH: B1 VH with W53G, R56G, F102I, R106L
VL: B1 VL with R27K
B3: 78-8D22 scFv (scFv, part only; not given: Linker, domain order, 3xFLAG tag, V domains shown, not shown: another chain or arm of the molecule; small tags and cut ends)
VH: B1 VH with R56S
VL: B1 VL with R27K, P95A
B4: 78-8D2 scFv (scFv, part only; not given: Linker, domain order, 3xFLAG tag, V domains shown, not shown: another chain or arm of the molecule; small tags and cut ends)
VH: B1 VH with S52T, R106L
VL: B1 VL with R27K, T74I
B5: 78-8D6 scFv (scFv, part only; not given: Linker, domain order, 3xFLAG tag, V domains shown, not shown: another chain or arm of the molecule; small tags and cut ends)
VH: B1 VH with A23V, R56G, R106L
VL: B1 VL with R27K, D50N
B6: 78-8D7 scFv (scFv, part only; not given: Linker, domain order, 3xFLAG tag, V domains shown, not shown: another chain or arm of the molecule; small tags and cut ends)
VH: B1 VH with R56A, L104R, R106L
VL: B1 VL with R27K, N31I, S52F, P59S
B7: 78-36 scFv (scFv, part only; not given: Linker, domain order, 3xFLAG tag, V domains shown, not shown: another chain or arm of the molecule; small tags and cut ends)
VH: MEVQLVESGGGLVQPGGSLRLSCVASGFTFSSYYMHWVRQAPGKGLEWVSAISGSGGSTYYADSVKGRFTISRDNSKNTLYLQMNSLRAEDTAVYYCARGRQVGKSSFGEAFDVWGQGTLVTVSS
VL: B1 VL with R27Q, N92T, L96Y
B8: 78-24D9 scFv (scFv, part only; not given: Linker, domain order, 3xFLAG tag, V domains shown, not shown: another chain or arm of the molecule; small tags and cut ends)
VH: EVQLVESGGGLVQPGGSLRLSCAASGFTFSSSSMHWVRQAPGKGLEWVSGISGWGGSTSYADSVKGRFTISRDNSKNTLYLQMNSLRAEDTAVYYCARYLMSFNLTRTGWFDVWGQGTLVTVSS
VL: B1 VL with R27Q, S30A, F91S, N92D, S93A, F94W, L96W
B9: 78-8D5 scFv (scFv, part only; not given: Linker, domain order, 3xFLAG tag, V domains shown, not shown: another chain or arm of the molecule; small tags and cut ends)
VH: B1 VH with R56G, R106L
VL: B1 VL with R27K
B10: 78-8D10 scFv (scFv, part only; not given: Linker, domain order, 3xFLAG tag, V domains shown, not shown: another chain or arm of the molecule; small tags and cut ends)
VH: MEVQLVESGGGLVQPGGSLRLSCAASGFTFSSYVMHWVRQAPGKGLEWVSAISWSGRGTYYADSVKGRFTISRDNSKNTLYLQMNSLRAEDTAVYYCARGRLFGLALYGEAFDVWGQGTLVTVSS
VL: B1 VL with R27K
B11: 78-24D12 scFv (scFv, part only; not given: Linker, domain order, 3xFLAG tag, V domains shown, not shown: another chain or arm of the molecule; small tags and cut ends)
VH: B8 VH with S32Y, W54S, G56L, Y99D, S102A, W110G
VL: B1 VL with R27H, S30L, F91G, N92H, S93A, F94W, P95L, L96W
B12: 78-8D4 scFv (scFv, part only; not given: Linker, domain order, 3xFLAG tag, V domains shown, not shown: another chain or arm of the molecule; small tags and cut ends)
VH: B1 VH with S52T, R56G, A105V
VL: B1 VL with R27K
B13: 78-24D1 scFv (scFv, part only; not given: Linker, domain order, 3xFLAG tag, V domains shown, not shown: another chain or arm of the molecule; small tags and cut ends)
VH: B8 VH with S30T, S32Y, W54S, G56R, Y99D, S102A, T108A, W110G
VL: B1 VL with R27Q, Y32F, F91G, N92D, S93A, F94W, L96W
B14: 78-24D8 scFv (scFv, part only; not given: Linker, domain order, 3xFLAG tag, V domains shown, not shown: another chain or arm of the molecule; small tags and cut ends)
VH: B8 VH with E6K, S32Y, W54S, G56R, Y99D, S102A, W110G
VL: B1 VL with R27Q, S76N, F91G, N92D, S93A, F94W, L96W
B15: 78-24D17 scFv (scFv, part only; not given: Linker, domain order, 3xFLAG tag, V domains shown, not shown: another chain or arm of the molecule; small tags and cut ends)
VH: B8 VH with W54S, G109S
VL: B1 VL with R27Q, D28A, F91G, N92D, S93A, F94W, L96W
B16: 78-28 scFv (scFv, part only; not given: Linker, domain order, 3xFLAG tag, V domains shown, not shown: another chain or arm of the molecule; small tags and cut ends)
VH: EVQLVESGGGLVQPGGSLRLSCAASGFTFSSYYMHWVRQAPGKGLEWVSAIYGNGGYTYYADSVKGRFTISRDNSKNTLYLQMNSLRAEDTAVYYCARGRPARHQVGFDVWGQGTLVTVSS
VL: B1 VL with R27L, F91L, N92Y, S93T, F94V

Changes are numbered by the printed parent chain.

The target in one test is recombinant mouse CTLA-4 protein (mouse) (UniProt P09793). Kind of test: SPR (Pioneer FE, OneStep), 25 C; 3xFLAG scFv captured by anti-FLAG M2, mouse CTLA-4 as analyte.
recombinant mouse CTLA-4 protein (mouse), sequence (P09793 36-161 limits assumed): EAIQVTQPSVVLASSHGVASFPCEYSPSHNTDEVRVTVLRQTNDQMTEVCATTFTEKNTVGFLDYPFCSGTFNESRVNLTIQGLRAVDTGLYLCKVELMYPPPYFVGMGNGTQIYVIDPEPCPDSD
With B1, the Kd was found to be 0.17 nM.
As to B2, the Kd came to 0.06 nM.
The same measure, in the same setting: the result for B3 reads 0.37 nM; that for B4, 0.3 nM; that for B5, 0.19 nM.
Regarding B6, the dissociation constant (Kd) amounted to 0.39 nM.
B7: the Kd is 0.98 nM.
With B8, the Kd amounted to 1.11 nM.
With B9, the dissociation constant Kd came to 0.42 nM.
Still for that read-out and setting: the result for B10 reads 0.49 nM; that for B11, 0.01 nM.
On the same count and under the same terms, the same measure for B12: 0.2 nM.
With B13, the Kd turned out to be 0.059 nM.
Same read-out and setting: the same measure for B14: 0.01 nM.
As to B15, the Kd came to 1.06 nM.
On the same count and under the same terms, the result for B16 reads 2.57 nM.

A further test deals with recombinant human CTLA-4 protein (human) (UniProt P16410). Kind of test: SPR (Pioneer FE, OneStep), 25 C; 3xFLAG scFv captured by anti-FLAG M2, human CTLA-4 as analyte.
recombinant human CTLA-4 protein (human), sequence (P16410 36-161 limits assumed): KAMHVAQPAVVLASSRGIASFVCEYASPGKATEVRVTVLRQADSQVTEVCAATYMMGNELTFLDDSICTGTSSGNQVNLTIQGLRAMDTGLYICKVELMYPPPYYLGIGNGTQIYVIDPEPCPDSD
Take B1: the dissociation constant (Kd) was 0.32 nM.
Still for that read-out and setting: the same measure for B2: 168 nM; for B3: 0.16 nM.
Still for that read-out and setting: the same measure for B4: 0.37 nM; for B5: 0.24 nM; for B6: 0.3 nM.
Same read-out and setting: the result for B8 reads 1.18 nM; that for B9, 0.74 nM.
Take B10: the Kd is 0.58 nM.
The same measure, in the same setting: the same measure for B11: 2.88 nM; for B12: 0.21 nM; for B13: 1.15 nM.
Still for that read-out and setting: the result for B14 reads 1.46 nM; that for B15, 0.87 nM.
